Assay results from the supplement of paper PMC5998384.

What was measured:
HeLa Kyoto [1] = experiment: solubility in G1/S (NP-40 vs SDS abundance) (log2 ratio); higher = more soluble; conditions: cell cycle stage: G1/S
HeLa Kyoto [2] = experiment: melting temperature (median over replicates), in situ; higher = more thermally stable
HeLa Kyoto [3] = experiment: solubility change mitosis vs G1/S (difference of NP-40 vs SDS log2 ratios) (log2 ratio difference); higher = more soluble in mitosis
HeLa Kyoto [4] = experiment: thermal stability score vs G1/S (z-score of summed log2 fold changes over temperatures); higher = more thermally stable than in G1/S
[5] = cell cycle stage: early G1 (4.5 h after nocodazole release)
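Wherever melting temperature (median over replicates), in situ is given: HeLa Kyoto cells synchronized by double thymidine or nocodazole block, proteins quantified by TMT10plex mass spectrometry, three independent biological replicates.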
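Wherever solubility change mitosis vs G1/S (difference of NP-40 vs SDS log2 ratios) is given: synchronized HeLa Kyoto cells (double thymidine block for G1/S, nocodazole release for mitosis), protein amounts in NP-40 versus SDS lysates quantified by mass spectrometry, three biological replicates.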
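Wherever solubility in G1/S (NP-40 vs SDS abundance) is given: HeLa Kyoto cells arrested at G1/S by double thymidine block, proteins quantified by TMT10plex mass spectrometry in mild NP-40 versus SDS extracts, three biological replicates.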
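Wherever thermal stability score vs G1/S (z-score of summed log2 fold changes over temperatures) is given: synchronized HeLa Kyoto cells, proteins quantified by TMT10plex mass spectrometry, three biological replicates, mitosis taken 0.5 h after nocodazole release, G1/S directly after double thymidine block.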

Substance	solubility in G1/S (log2) (HeLa Kyoto [1])	melting temperature (HeLa Kyoto [2]; cell cycle stage: G1/S) [°C]	melting temperature (HeLa Kyoto [2]; cell cycle stage: mitosis) [°C]	solubility change mitosis (log2) (HeLa Kyoto [3])	thermal stability score (HeLa Kyoto [4]; [5])	thermal stability score (HeLa Kyoto [4]; cell cycle stage: mitosis)
MSLFGTTSGFGTSGTSMFGSATTDNHNPMKDIEVTSSPDDSIGCLSFSPPTLPGNFLIAGSWANDVRCWEVQDSGQTIPKAQQMHTGPVLDVCWSDDGSKVFTASCDKTAKMWDLSSNQAIQIAQHDAPVKTIHWIKAPNYSCVMTGSWDKTLKFWDTRSSNPMMVLQLPERCYCADVIYPMAVVATAERGLIVYQLENQPSEFRRIESPLKHQHRCVAIFKDKQNKPTGFALGSIEGRVAIHYINPPNPAKDNFTFKCHRSNGTNTSAPQDIYAVNGIAFHPVHGTLATVGSDGRFSFWDKDARTKLKTSEQLDQPISACCFNHNGNIFAYASSYDWSKGHEFYNPQKKNYIFLRNAAEELKPRNKK [RAE1]	-0.0787	49.8	49.1	0.128	-1.34	-0.473
RHOG	0.562	55.9	55.2	-0.00567	-1.81	-2.65
MLGVRCLLRSVRFCSSAPFPKHKPSAKLSVRDALGAQNASGERIKIQGWIRSVRSQKEVLFLHVNDGSSLESLQVVADSGLDSRELNFGSSVEVQGQLIKSPSKRQNVELKAEKIKVIGNCDAKDFPIKYKERHPLEYLRQYPHFRCRTNVLGSILRIRSEATAAIHSFFKDSGFVHIHTPIITSNDSEGAGELFQLEPSGKLKVPEENFFNVPAFLTVSGQLHLEVMSGAFTQVFTFGPTFRAENSQSRRHLAEFYMIEAEISFVDSLQDLMQVIEELFKATTMMVLSKCPEDVELCHKFIAPGQKDRLEHMLKNNFLIISYTEAVEILKQASQNFTFTPEWGADLRTEHEKYLVKHCGNIPVFVINYPLTLKPFYMRDNEDGPQHTVAAVDLLVPGVGELFGGGLREERYHFLEERLARSGLTEVYQWYLDLRRFGSVPHGGFGMGFERYLQCILGVDNIKDVIPFPRFPHSCLL [NARS2]	-0.141	49.7	49.8	-0.147	-0.169	1.1
MESMFSSPAEAALQRETGVPGLLTPLPDLDGVYELERVAGFVRDLGCERVALQFPDQLLGDAVAVAARLEETTGSKMFILGDTAYGSCCVDVLGAEQAGAQALIHFGPACLSPPARPLPVAFVLRQRSVALELCVKAFEAQNPDPKAPVVLLSEPACAHALEALATLLRPRYLDLLVSSPAFPQPVGSLSPEPMPLERFGRRFPLAPGRRLEEYGAFYVGGSKASPDPDLDPDLSRLLLGWAPGQPFSSCCPDTGKTQDEGARAGRLRARRRYLVERARDARVVGLLAGTLGVAQHREALAHLRNLTQAAGKRSYVLALGRPTPAKLANFPEVDVFVLLACPLGALAPQLSGSFFQPILAPCELEAACNPAWPPPGLAPHLTHYADLLPGSPFHVALPPPESELWETPDVSLITGDLRPPPAWKSSNDHGSLALTPRPQLELAESSPAASFLSSRSWQGLEPRLGQTPVTEAVSGRRGIAIAYEDEGSG [DPH2]	0.268	53.9	53.4	-0.0726	-0.452	-1.28
MEKTELIQKAKLAEQAERYDDMATCMKAVTEQGAELSNEERNLLSVAYKNVVGGRRSAWRVISSIEQKTDTSDKKLQLIKDYREKVESELRSICTTVLELLDKYLIANATNPESKVFYLKMKGDYFRYLAEVACGDDRKQTIDNSQGAYQEAFDISKKEMQPTHPIRLGLALNFSVFYYEILNNPELACTLAKTAFDEAIAELDTLNEDSYKDSTLIMQLLRDNLTLWTSDSAGEECDAAEGAEN [YWHAQ]	0.435	51.4	52	0.372	0.526	2.69
MDDFERRRELRRQKREEMRLEAERIAYQRNDDDEEEAARERRRRARQERLRQKQEEESLGQVTDQVEVNAQNSVPDEEAKTTTTNTQVEGDDEAAFLERLARREERRQKRLQEALERQKEFDPTITDASLSLPSRRMQNDTAENETTEKEEKSESRQERYEIEETETVTKSYQKNDWRDAEENKKEDKEKEEEEEEKPKRGSIGENQVEVMVEEKTTESQEETVVMSLKNGQISSEEPKQEEEREQGSDEISHHEKMEEEDKERAEAERARLEAEERERIKAEQDKKIADERARIEAEEKAAAQERERREAEERERMREEEKRAAEERQRIKEEEKRAAEERQRIKEEEKRAAEERQRIKEEEKRAAEERQRARAEEEEKAKVEEQKRNKQLEEKKHAMQETKIKGEKVEQKIEGKWVNEKKAQEDKLQTAVLKKQGEEKGTKVQAKREKLQEDKPTFKKEEIKDEKIKKDKEPKEEVKSFMDRKKGFTEVKSQNGEFMTHKLKHTENTFSRPGGRASVDTKEAEGAPQVEAGKRLEELRRRRGETESEEFEKLKQKQQEAALELEELKKKREERRKVLEEEEQRRKQEEADRKLREEEEKRRLKEEIERRRAEAAEKRQKMPEDGLSDDKKPFKCFTPKGSSLKIEERAEFLNKSVQKSSGVKSTHQAAIVSKIDSRLEQYTSAIEGTKSAKPTKPAASDLPVPAEGVRNIKSMWEKGNVFSSPTAAGTPNKETAGLKVGVSSRINEWLTKTPDGNKSPAPKPSDLRPGDVSSKRNLWEKQSVDKVTSPTKV [CALD1]	0.0624	57.1	57.1	0.119	0.295	-2.2
DOCK9	-0.203	51.4	50.6	-0.156	-0.162	-0.395
